Test results from publication PMC11329700.

Biological target: His-tagged mouse Endophilin A1 SH3 domain (mouse) (UniProt Q62420)
Test: ELISA; His-tagged mouse Endophilin A1 SH3 domain coated onto a 96-well plate, overlaid with increasing concentrations of GST-tagged Dyn1-PRR peptides; two experiments with four replicates each

Chain of His-tagged mouse Endophilin A1 SH3 domain (mouse) (Q62420 290-349): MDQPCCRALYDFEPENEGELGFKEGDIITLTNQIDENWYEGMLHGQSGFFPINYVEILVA

Row | fold lower affinity than xA 746-864 [fold] | fold weaker affinity than xA 746-864 [fold] | Substance
1 | 3 |  | GST-Dyn1xB-PRR (dynamin 1xB proline-rich region, amino acids 746-851) (domain or fragment)
2 |  | 9 | GST-Dyn1xA-PRR 751-798 (domain or fragment)
